Results as given in patent publication US20210155712A1.

How the values were obtained:
[1] = molecular target: human HER3:human NRG1 complex (human) (UniProt Q02297); test: BLI (Octet QK384), antibody on AHC sensors, human HER3-NRG1 complex (1:1 molar ratio) in solution, presence of human NRG1
[2] = molecular target: recombinant human HER3 (human) (UniProt P21860); test: BLI (Octet QK384), antibody on AHC sensors, His-tagged human HER3 in solution, absence of human NRG1
[3] = molecular target: human HER3 expressed on cells (human) (UniProt P21860); test: flow cytometry, HEK293T HER3 O/E cells, 10 ug antibody, FITC channel

Chain of anti-HER3 antibody clone LJM716 (VH): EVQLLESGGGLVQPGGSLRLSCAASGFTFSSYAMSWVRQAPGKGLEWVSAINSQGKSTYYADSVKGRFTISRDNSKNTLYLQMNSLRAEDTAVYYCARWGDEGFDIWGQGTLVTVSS
Chain of anti-HER3 antibody clone LJM716 (VL): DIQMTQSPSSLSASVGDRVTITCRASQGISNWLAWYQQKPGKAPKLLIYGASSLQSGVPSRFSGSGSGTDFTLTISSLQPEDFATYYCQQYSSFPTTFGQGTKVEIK

Kd [1]: 16.8 nM
Kd [2]: < 0.001 nM
% Parent (HER3 positive) [3]: 74.4%
Substance: anti-HER3 antibody clone LJM716
